Assay results taken from US20220235120A1 (UNIVERSITY OF MARYLAND BALTIMORE, published 2022).

How the values were obtained:
[1] = molecular target: Clostridium difficile toxin A (TcdA) (Clostridium difficile, UniProt P16154 1-2710); experiment: cell-based or functional assay
[2] = molecular target: Clostridium difficile toxin B (TcdB) (Clostridium difficile, UniProt P18177 2-2366); experiment: cell-based or functional assay
Sequence of Clostridium difficile toxin B (TcdB) (P18177 2-2366 limits assumed): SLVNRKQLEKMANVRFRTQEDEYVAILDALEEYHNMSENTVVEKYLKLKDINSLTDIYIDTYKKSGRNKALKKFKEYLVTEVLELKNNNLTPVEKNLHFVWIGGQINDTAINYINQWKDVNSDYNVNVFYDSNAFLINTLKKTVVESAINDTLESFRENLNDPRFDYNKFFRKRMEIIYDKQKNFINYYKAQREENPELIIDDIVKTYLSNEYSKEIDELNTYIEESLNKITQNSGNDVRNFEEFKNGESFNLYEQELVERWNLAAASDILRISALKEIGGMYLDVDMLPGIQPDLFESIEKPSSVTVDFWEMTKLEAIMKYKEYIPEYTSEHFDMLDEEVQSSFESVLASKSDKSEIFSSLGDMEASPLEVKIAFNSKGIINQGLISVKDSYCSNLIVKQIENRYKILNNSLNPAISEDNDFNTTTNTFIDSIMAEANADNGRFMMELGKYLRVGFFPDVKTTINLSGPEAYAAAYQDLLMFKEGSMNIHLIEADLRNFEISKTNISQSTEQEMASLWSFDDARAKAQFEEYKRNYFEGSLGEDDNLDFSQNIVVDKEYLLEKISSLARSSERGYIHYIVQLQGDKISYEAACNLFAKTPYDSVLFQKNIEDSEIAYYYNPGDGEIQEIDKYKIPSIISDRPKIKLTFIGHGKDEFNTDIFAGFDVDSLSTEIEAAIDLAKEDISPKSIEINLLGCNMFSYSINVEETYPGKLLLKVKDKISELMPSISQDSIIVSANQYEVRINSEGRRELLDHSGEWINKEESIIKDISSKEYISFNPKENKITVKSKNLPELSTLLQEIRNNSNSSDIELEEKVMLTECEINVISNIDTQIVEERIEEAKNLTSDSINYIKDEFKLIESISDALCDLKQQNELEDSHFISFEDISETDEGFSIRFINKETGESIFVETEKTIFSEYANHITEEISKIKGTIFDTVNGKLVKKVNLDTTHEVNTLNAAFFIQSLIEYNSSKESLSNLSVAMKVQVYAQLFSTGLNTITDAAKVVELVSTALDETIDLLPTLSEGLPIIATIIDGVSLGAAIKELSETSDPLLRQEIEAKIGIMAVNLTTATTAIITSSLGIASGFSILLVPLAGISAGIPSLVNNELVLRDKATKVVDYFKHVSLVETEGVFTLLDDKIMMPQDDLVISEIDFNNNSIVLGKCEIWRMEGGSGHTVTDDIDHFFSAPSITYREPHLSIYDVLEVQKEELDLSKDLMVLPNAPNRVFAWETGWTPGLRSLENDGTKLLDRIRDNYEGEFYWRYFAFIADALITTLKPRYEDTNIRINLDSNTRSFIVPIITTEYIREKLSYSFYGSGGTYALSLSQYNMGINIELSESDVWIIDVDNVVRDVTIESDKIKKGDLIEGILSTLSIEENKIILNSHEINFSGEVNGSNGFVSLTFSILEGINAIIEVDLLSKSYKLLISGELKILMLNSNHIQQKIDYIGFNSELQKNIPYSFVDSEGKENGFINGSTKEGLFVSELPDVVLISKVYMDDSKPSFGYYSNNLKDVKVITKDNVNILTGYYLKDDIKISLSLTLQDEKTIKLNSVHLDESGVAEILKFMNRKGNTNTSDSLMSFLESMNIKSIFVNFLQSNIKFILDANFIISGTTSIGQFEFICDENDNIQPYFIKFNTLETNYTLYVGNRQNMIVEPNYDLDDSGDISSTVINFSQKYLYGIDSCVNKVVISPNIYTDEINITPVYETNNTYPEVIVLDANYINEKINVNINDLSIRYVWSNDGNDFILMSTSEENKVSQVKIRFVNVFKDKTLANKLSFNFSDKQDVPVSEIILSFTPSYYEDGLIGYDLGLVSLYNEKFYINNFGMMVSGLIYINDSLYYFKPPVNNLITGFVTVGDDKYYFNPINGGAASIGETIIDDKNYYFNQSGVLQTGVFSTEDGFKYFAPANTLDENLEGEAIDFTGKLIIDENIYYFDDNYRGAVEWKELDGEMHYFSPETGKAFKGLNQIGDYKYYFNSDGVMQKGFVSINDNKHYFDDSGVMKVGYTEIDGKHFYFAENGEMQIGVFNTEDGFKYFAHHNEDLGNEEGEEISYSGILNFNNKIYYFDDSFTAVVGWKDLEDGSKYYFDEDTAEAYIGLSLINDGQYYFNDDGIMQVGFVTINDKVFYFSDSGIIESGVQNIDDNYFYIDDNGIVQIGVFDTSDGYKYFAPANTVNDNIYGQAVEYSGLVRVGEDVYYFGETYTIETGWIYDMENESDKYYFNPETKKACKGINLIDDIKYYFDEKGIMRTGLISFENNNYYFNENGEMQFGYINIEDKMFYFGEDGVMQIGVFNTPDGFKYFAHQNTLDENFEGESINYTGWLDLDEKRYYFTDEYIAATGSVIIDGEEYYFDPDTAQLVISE

Sequence of Clostridium difficile toxin A (TcdA) (P16154 whole entry): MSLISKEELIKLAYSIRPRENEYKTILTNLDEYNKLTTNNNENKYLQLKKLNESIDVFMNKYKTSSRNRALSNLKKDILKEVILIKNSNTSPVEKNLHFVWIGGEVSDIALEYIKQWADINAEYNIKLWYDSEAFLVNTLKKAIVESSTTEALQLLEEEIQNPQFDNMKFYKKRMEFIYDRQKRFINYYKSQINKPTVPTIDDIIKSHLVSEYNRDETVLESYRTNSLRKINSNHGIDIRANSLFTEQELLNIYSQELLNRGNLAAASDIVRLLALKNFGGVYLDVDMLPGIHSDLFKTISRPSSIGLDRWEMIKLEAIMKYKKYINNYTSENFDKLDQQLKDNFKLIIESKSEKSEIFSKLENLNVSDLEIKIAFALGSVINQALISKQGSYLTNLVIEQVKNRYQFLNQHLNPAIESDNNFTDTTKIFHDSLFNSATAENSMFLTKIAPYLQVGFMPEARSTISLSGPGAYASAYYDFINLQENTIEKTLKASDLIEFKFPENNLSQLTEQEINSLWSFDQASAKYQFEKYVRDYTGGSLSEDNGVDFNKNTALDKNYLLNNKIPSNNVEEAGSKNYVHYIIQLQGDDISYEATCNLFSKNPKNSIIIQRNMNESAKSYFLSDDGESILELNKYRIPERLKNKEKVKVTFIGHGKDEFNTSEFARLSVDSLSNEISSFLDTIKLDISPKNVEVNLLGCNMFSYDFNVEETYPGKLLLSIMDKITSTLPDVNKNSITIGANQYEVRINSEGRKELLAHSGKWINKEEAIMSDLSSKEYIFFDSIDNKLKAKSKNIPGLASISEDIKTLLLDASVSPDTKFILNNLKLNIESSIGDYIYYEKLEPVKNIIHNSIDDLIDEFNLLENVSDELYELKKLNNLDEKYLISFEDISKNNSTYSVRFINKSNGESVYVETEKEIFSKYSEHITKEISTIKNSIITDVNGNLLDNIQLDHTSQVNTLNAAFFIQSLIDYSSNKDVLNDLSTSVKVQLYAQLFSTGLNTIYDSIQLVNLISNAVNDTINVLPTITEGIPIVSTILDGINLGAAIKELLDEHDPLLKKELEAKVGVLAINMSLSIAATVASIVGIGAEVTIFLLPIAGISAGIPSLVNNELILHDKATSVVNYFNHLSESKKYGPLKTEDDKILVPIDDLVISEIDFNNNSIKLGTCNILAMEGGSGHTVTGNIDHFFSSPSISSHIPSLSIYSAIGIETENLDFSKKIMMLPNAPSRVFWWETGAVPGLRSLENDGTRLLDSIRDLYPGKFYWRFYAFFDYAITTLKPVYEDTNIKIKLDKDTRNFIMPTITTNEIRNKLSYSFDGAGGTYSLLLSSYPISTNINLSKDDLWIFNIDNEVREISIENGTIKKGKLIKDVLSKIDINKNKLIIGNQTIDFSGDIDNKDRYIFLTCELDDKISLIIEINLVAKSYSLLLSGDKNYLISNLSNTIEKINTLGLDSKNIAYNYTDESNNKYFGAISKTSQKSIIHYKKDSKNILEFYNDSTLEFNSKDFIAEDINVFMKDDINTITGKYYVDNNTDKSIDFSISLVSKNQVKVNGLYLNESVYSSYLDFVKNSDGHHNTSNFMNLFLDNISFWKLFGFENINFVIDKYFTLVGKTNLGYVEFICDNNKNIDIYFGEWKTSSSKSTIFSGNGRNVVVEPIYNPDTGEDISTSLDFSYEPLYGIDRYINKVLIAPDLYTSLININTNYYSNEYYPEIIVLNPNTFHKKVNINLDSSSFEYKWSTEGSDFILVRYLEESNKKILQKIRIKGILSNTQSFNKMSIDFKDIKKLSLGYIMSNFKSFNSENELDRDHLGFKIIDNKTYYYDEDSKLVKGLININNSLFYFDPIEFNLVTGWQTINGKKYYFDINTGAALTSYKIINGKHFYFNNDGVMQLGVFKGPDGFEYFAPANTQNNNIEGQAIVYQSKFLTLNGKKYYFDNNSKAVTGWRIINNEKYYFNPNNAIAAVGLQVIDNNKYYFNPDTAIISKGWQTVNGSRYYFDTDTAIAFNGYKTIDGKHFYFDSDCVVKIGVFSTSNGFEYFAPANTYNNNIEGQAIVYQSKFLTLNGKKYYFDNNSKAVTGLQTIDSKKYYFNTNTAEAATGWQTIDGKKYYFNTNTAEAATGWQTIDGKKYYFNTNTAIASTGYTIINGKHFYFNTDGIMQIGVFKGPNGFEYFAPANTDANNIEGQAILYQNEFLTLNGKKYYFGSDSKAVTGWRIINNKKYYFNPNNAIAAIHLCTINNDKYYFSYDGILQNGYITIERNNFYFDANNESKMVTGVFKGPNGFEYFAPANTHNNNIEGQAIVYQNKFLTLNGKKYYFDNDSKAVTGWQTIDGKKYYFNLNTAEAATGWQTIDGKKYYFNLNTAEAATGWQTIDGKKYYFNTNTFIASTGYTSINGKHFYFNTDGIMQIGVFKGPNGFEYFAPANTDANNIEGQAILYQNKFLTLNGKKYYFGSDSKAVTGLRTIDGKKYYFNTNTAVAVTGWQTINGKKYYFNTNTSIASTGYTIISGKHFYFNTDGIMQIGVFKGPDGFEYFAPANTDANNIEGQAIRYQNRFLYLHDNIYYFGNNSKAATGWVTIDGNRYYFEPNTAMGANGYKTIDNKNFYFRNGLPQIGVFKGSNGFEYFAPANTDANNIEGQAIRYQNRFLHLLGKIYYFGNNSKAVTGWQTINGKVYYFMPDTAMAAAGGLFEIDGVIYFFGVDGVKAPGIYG

B1: FZ003 binding agent (tetra-specific, octameric VHH-IgG1 with CDR-grafted humanized VHHs) (bispecific antibody)
light: EVQLLESGGGLVQPGGSLRLSCAASGFTFSDYVMTWVRQAPGKGPEWIATINTDGSTMRDDSTKGRFTISRDNSKNTLYLQMNSLRAEDTAVYYCARGRVISASAIRGAVRGQGTLVTVSSGGGGSGGGGSGGGGSEVQLLESGGGLVQPGGSLRLSCAASGSIAGFETVTWSRQAPGKSLQWVASMTKTNNEIYSDSVKGRFTISRDNSKNTVYLQMNSLRAEDTAVYYCKGPELRGQGTLVTVSSRTVAAPSVFIFPPSDEQLKSGTASVVCLLNNFYPREAKVQWKVDNALQSGNSQESVTEQDSKDSTYSLSSTLTLSKADYEKHKVYACEVTHQGLSSPVTKSFNRGEC
heavy: not shown
[1]
  survival in mouse systemic toxin challenge (toxins pre-incubated with antibody): > 1000 fold more potent than the Merck antibody
[2]
  survival in mouse systemic toxin challenge (toxins pre-incubated with antibody): > 1000 fold more potent than the Merck antibody
